Test results as given in patent US20220411483A1 (Chugai, published 2022).
Residue numbers refer to the chain shown, from its start.

T1: FcgRIIb (human, UniProt P31994 43-217)
T1 construct: extracellular domain; also called FcγRIIb
T1 sequence (looked up): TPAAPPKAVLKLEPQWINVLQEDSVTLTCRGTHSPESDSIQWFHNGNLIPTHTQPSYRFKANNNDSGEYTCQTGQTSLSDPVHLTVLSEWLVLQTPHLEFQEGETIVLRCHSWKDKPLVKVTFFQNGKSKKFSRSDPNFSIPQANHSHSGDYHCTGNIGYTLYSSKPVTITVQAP

T2: FcgRIIaR (human, UniProt P12318 34-217)
T2 construct: extracellular domain; also called FcγRIIa R type; FcγRIIa (R type)
T2 sequence (looked up): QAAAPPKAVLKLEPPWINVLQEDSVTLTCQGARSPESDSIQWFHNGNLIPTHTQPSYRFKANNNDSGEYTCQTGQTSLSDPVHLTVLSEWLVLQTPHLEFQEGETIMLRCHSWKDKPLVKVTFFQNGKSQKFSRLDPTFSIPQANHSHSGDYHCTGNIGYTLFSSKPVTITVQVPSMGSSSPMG

B1: IL6R-P559/IL6R-L (antibody, human IgG1, kappa)
heavy: QVQLQESGPGLVKPSETLSLTCAVSGHSISHDHAWSWVRQPPGEGLEWIGFISYSGITNYNPSLQGRVTISRDNSKNTLYLQMNSLRAEDTAVYYCARSLARTTAMDYWGEGTLVTVSSASTKGPSVFPLAPSSKSTSGGTAALGCLVKDYFPEPVTVSWNSGALTSGVHTFPAVLQSSGLYSLSSVVTVPSSSLGTQTYICNVNHKPSNTKVDKKVEPKSCDKTHTCPPCPAPELLGDDSVFLFPPKPKDTLMISRTPEVTCVVVDVSEEDGEVKFNWYVDGVEVHNAKTKPREEQYNSTYRVVSVLTVLHQDWLNGKEYKCKVSNKALPAPIEKTISKAKGQPREPQVYTLPPSRDELTKNQVSLTCLVKGFYPSDIAVEWESNGQPENNYKTTPPVLDSDGSFFLYSKLTVDKSRWQQGNVFSCSVMHEALHNHYTQKSLSLSP
light: not shown
B2: IL6R-G1dGSS/IL6R-L (antibody, human IgG1, kappa)
heavy: B1 heavy with D239G, D240P, E270H, G273P, A329G, A332S, P333S
light: not shown
B3: IL6R-P737/IL6R-L (antibody, human IgG1, kappa)
heavy: B1 heavy with D239Q, F243M, E270P, G273P, Y298E, S326H, A332H
light: not shown
B4: IL6R-P727/IL6R-L (antibody, human IgG1, kappa)
heavy: B1 heavy with D239Q, F243M, E270P, G273P, Y298E, A332H
light: not shown
B5: IL6R-P729/IL6R-L (antibody, human IgG1, kappa)
heavy: B1 heavy with L237F, D239Q, F243M, E270P, G273P, Y298E
light: not shown
B6: IL6R-P744/IL6R-L (antibody, human IgG1, kappa)
heavy: B1 heavy with D239G, E270H, G273P, S300A, K324A
light: not shown
B7: IL6R-P743/IL6R-L (antibody, human IgG1, kappa)
heavy: B1 heavy with D239G, E270H, G273P, A329G, A332S, P333S
light: not shown
B8: IL6R-P587/IL6R-L (antibody, human IgG1, kappa)
heavy: B1 heavy with E235D, D239G, V266I, S269A
light: not shown
B9: IL6R-P556/IL6R-L (antibody, human IgG1, kappa)
heavy: B1 heavy with E235D, E270D
light: not shown
B10: IL6R-P691/IL6R-L (antibody, human IgG1, kappa)
heavy: B1 heavy with L237F, D239Q, F243M, E270H, G273P, Y298E
light: not shown
B11: IL6R-P733/IL6R-L (antibody, human IgG1, kappa)
heavy: B1 heavy with L237F, D239Q, F243M, E270P, G273P, Y298E, S326H
light: not shown
B12: IL6R-P562/IL6R-L (antibody, human IgG1, kappa)
heavy: B1 heavy with E235D
light: not shown
B13: IL6R-P588/IL6R-L (antibody, human IgG1, kappa)
heavy: B1 heavy with D239G, V266I, S269A
light: not shown

molecular target: T3, human complement C1q (human, UniProt P02745 23-245; P02746 28-253; P02747 29-245); assay: SPR, C1q bound per antibody captured on Protein L
T3 construct: Bought (PROSPEC or Calbiochem); also called human C1q
T3 sequence (P02745 23-245 limits assumed, chain 1 of 3): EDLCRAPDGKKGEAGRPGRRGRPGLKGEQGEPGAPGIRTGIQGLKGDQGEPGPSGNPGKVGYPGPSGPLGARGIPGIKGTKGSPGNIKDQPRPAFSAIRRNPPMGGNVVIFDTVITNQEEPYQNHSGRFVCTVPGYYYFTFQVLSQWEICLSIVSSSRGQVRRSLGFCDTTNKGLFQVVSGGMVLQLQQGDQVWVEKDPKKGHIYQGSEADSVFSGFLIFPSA
T3 sequence (P02746 28-253 limits assumed, chain 2 of 3): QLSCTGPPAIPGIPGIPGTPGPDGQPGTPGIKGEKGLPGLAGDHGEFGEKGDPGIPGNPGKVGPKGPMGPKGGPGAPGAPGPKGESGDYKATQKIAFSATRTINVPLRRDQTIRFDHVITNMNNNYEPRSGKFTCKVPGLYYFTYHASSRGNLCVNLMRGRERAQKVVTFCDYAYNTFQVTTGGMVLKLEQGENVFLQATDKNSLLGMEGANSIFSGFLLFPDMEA
T3 sequence (P02747 29-245 limits assumed, chain 3 of 3): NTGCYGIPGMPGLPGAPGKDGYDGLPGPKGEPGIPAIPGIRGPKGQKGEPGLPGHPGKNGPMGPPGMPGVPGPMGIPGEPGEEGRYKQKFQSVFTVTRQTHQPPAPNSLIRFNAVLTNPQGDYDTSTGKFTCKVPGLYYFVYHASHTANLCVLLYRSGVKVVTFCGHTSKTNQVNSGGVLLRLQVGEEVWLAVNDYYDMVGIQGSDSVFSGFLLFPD
Protocol: The interaction between an antibody and human C1q was analyzed using Biacore T200 (GE Healthcare). HBS-EP+ (GE Healthcare) was used as the running buffer, and the measurement temperature was set at 25° C. Chips produced by immobilizing Protein L (ACTIGEN or BioVision) onto Series S sensor Chip CM4 (GE Healthcare) by amine coupling were used.
The antibodies of interest were captured onto these sensor chips, and allowed to interact with human complement C1q (PROSPEC or Calbiochem) diluted in the running buffer. The amount of antibody binding was determined, and comparisons were made among the antibodies. However, since the amount of C1q bound depends on the amount of captured antibodies, corrected values obtained by dividing the amount of C1q bound by the amount of each antibody captured were compared. Furthermore, by reaction with 10 mM glycine-HCl, pH 1.5, the antibodies captured onto the sensor chips were washed, and the sensor chips were recycled and reused.

Binder	Amount of C1q-binding when that for G1d is Defined as 100
B1	34.1 G1d=100
B2	15.2 G1d=100
B3	45.7 G1d=100
B4	35.5 G1d=100
B5	22.8 G1d=100
B6	13.6 G1d=100
B7	20.9 G1d=100
B8	132 G1d=100
B9	33.5 G1d=100
B10	21 G1d=100
B11	23 G1d=100
B12	29.4 G1d=100
B13	108 G1d=100

molecular target: T1, FcgRIIb; assay: SPR, amount bound per captured antibody

Binder	Relative FcgRIIb-binding Activity
B1	319 IL6R-G1d/IL6R-L=100
B2	115 IL6R-G1d/IL6R-L=100
B3	78.7 IL6R-G1d/IL6R-L=100
B4	93 IL6R-G1d/IL6R-L=100
B5	100 IL6R-G1d/IL6R-L=100
B6	81.4 IL6R-G1d/IL6R-L=100
B7	69.4 IL6R-G1d/IL6R-L=100
B8	350 IL6R-G1d/IL6R-L=100
B9	294 IL6R-G1d/IL6R-L=100
B10	119 IL6R-G1d/IL6R-L=100
B11	84.8 IL6R-G1d/IL6R-L=100
B12	311 IL6R-G1d/IL6R-L=100
B13	346 IL6R-G1d/IL6R-L=100

molecular target: T2, FcgRIIaR; assay: SPR, amount bound per captured antibody

Binder	Relative FcgRIIaR-binding Activity
B1	89.4 IL6R-G1d/IL6R-L=100
B2	98.5 IL6R-G1d/IL6R-L=100
B3	8 IL6R-G1d/IL6R-L=100
B4	9.7 IL6R-G1d/IL6R-L=100
B5	9 IL6R-G1d/IL6R-L=100
B6	11.1 IL6R-G1d/IL6R-L=100
B7	13.5 IL6R-G1d/IL6R-L=100
B8	106 IL6R-G1d/IL6R-L=100
B9	81.7 IL6R-G1d/IL6R-L=100
B10	10.8 IL6R-G1d/IL6R-L=100
B11	8.1 IL6R-G1d/IL6R-L=100
B12	89.7 IL6R-G1d/IL6R-L=100
B13	100 IL6R-G1d/IL6R-L=100
